Assay results as given in IntAct's records for PubMed 29039417.

B1: BBSome complex member BBS5 (Homo sapiens), Q8N3I7 (parent)
chain: MSVLDALWEDRDVRFDLSAQQMKTRPGEVLIDCLDSIEDTKGNNGDRGRLLVTNLRILWHSLALSRVNVSVGYNCILNITTRTANSKLRGQTEALYILTKCNSTRFEFIFTNLVPGSPRLFTSVMAVHRAYETSKMYRDFKLRSALIQNKQLRLLPQEHVYDKINGVWNLSSDQGNLGTFFITNVRIVWHANMNDSFNVSIPYLQIRSIKIRDSKFGLALVIESSQQSGGYVLGFKIDPVEKLQESVKEINSLHKVYSASPIFGVDYEMEEKPQPLEALTVEQIQDDVEIDSDGHTDAFVAYFADGNKQQDREPVFSEELGLAIEKLKDGFTLQGLWEVMS
partner: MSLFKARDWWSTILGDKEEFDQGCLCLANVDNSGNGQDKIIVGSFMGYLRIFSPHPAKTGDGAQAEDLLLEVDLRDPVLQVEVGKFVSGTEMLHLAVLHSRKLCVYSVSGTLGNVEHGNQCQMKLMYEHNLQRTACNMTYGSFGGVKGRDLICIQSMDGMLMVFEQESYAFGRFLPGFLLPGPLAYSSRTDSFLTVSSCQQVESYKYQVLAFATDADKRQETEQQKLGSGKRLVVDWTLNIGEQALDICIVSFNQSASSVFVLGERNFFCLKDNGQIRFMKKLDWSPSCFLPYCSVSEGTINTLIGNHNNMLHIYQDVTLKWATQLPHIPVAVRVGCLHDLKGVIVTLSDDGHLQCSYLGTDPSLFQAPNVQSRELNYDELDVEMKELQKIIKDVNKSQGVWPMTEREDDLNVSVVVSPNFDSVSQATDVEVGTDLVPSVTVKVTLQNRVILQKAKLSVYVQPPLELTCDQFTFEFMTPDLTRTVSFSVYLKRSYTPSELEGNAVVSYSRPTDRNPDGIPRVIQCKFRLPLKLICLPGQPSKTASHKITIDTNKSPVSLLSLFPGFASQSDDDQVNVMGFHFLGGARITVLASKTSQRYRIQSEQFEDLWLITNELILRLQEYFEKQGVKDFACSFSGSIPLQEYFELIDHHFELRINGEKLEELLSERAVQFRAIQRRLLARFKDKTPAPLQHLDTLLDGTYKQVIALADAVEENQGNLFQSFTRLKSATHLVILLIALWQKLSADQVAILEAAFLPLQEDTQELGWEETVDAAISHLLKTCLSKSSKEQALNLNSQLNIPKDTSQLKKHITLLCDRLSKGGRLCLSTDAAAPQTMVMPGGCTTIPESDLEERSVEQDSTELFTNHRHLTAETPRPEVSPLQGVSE

Variants of: B1
Details: with pthb1_human BBS9, Q3SYG4

Variant	effect of a mutation on the interaction
M193K	with no effect
M193E	with no effect
M193A	with no effect
R186A	with no effect
R186K	disrupting interaction strength
R186E	disrupting interaction strength
V199E	with no effect
V199A	with no effect
V199K	with no effect
K210A	with no effect
K210E	with no effect
Y203K	with no effect
Y203E	with no effect
Y203A	with no effect
S196E	with no effect
S196K	with no effect
S196A	with no effect
I182A	with no effect
I182K	disrupting interaction strength
I182E	with no effect
D195E	with no effect
D195A	with no effect
D195K	with no effect

Variant	effect of a mutation on the interaction
R207K	with no effect
R207A	with no effect
R207E	with no effect
T179K	with no effect
I206A	with no effect
I206K	with no effect
I206E	with no effect
I201A	with no effect
I201E	with no effect
I201K	with no effect
I187A	with no effect
I187E	with no effect
I187K	with no effect
S208E	with no effect
S208A	with no effect
S208K	with no effect
S200K	with no effect
S200A	with no effect
S200E	with no effect
T183K	with no effect
T183E	with no effect
T183A	with no effect
V188K	with no effect

Variant	effect of a mutation on the interaction
V188A	with no effect
V188E	with no effect
F180A	with no effect
F180K	disrupting interaction strength
F180E	with no effect
L204A	with no effect
L204K	with no effect
L204E	with no effect
F181E	with no effect
F181A	with no effect
F181K	with no effect
H190E	with no effect
H190K	with no effect
H190A	with no effect
N194A	with no effect
N194K	with no effect
N194E	with no effect
P202A	with no effect
P202E	with no effect
P202K	with no effect
F197E	with no effect
F197A	with no effect
F197K	with no effect

Variant	effect of a mutation on the interaction
N192E	with no effect
N192K	with no effect
N192A	with no effect
Q205E	with no effect
Q205K	with no effect
Q205A	with no effect
V185E	with no effect
V185A	with no effect
V185K	with no effect
I209A	with no effect
I209E	with no effect
I209K	with no effect
N184K	with no effect
N184A	with no effect
N184E	disrupting interaction strength
N198E	with no effect
N198K	with no effect
N198A	with no effect
W189A	with no effect
W189K	with no effect
W189E	with no effect
A191K	with no effect
A191E	with no effect
